Assay results: article PMC10287905, “Proper RPA acetylation promotes accurate DNA replication and repair” (Nucleic Acids Research, 2023)

Experiments:
Assay in all cases: MST; RED-tris-NTA labelled 6xHis-Rtt105 at constant 100 nM, serial dilutions of RPA complex from 200 to 0.0058 nM; 1x PBS with 0.05% Tween 20; 50 min at room temperature; Monolith NT.115
Settings in all cases: both partners purified
4KQ RPA complex = biological target: T1, 4KQ RPA complex (yeast, UniProt P22336 1-621; P26754 1-273; P26755 1-122, K259Q | K427Q | K463Q | K494Q)
T1 construct: Rfa1, largest subunit of yeast RPA, four lysines mutated to glutamine; Rfa2, subunit of yeast RPA; Rfa3, subunit of yeast RPA; also called 4KQ mutant RPA; source: purified from yeast cells; copies: + +
T1 sequence (P22336 whole entry K259Q/K427Q/K463Q/K494Q, chain 1 of 3): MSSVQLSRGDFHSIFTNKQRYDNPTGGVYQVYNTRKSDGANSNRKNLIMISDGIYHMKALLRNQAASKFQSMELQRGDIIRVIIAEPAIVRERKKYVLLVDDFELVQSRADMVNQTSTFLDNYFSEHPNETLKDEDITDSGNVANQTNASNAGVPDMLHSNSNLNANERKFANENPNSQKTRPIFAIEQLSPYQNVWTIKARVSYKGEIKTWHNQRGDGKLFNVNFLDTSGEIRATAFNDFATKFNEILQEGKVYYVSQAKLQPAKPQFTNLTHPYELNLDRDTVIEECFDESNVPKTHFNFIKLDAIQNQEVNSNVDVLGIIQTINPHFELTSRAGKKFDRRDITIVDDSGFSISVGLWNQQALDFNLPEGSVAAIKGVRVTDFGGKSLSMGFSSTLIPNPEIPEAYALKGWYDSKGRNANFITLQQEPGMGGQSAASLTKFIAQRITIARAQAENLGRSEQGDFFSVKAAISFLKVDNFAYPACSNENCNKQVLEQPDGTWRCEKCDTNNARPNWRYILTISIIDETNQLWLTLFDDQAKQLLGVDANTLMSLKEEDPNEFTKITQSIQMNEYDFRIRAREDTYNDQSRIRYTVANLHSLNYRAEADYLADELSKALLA
T1 sequence (P26754 whole entry, chain 2 of 3): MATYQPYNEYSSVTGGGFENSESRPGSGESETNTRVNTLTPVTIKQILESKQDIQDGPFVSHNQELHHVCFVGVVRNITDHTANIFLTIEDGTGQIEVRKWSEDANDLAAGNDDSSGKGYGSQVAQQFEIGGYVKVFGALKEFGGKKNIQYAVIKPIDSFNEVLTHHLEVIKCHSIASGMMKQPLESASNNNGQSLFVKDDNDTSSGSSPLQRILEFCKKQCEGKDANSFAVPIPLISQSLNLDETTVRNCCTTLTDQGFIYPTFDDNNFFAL
T1 sequence (P26755 whole entry, chain 3 of 3): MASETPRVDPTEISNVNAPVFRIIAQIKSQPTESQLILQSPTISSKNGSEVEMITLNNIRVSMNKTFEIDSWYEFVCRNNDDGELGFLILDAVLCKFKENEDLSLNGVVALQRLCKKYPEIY

WT RPA complex = biological target: T2, WT RPA complex (yeast, UniProt P22336 1-621; P26754 1-273; P26755 1-122)
T2 construct: Rfa1, largest subunit of yeast RPA; Rfa2, subunit of yeast RPA; Rfa3, subunit of yeast RPA; the MST methods say only 'RPA complex'; source: purified from yeast cells; copies: + +
T2 sequence (P22336 whole entry, chain 1 of 3): as the sequence (P22336 whole entry K259Q/K427Q/K463Q/K494Q, chain 1 of 3) above, with Q259K, Q427K, Q463K, Q494K counted along it
T2 sequence (P26754 whole entry, chain 2 of 3): as the sequence (P26754 whole entry, chain 2 of 3) above
T2 sequence (P26755 whole entry, chain 3 of 3): as the sequence (P26755 whole entry, chain 3 of 3) above

4KR RPA complex = biological target: T3, 4KR RPA complex (yeast, UniProt P22336 1-621; P26754 1-273; P26755 1-122, K259R | K427R | K463R | K494R)
T3 construct: Rfa1, largest subunit of yeast RPA, four lysines mutated to arginine; Rfa2, subunit of yeast RPA; Rfa3, subunit of yeast RPA; also called 4KR mutant RPA; source: purified from yeast cells; copies: + +
T3 sequence (P22336 whole entry K259R/K427R/K463R/K494R, chain 1 of 3): as the sequence (P22336 whole entry K259Q/K427Q/K463Q/K494Q, chain 1 of 3) above, with Q259R, Q427R, Q463R, Q494R counted along it
T3 sequence (P26754 whole entry, chain 2 of 3): as the sequence (P26754 whole entry, chain 2 of 3) above
T3 sequence (P26755 whole entry, chain 3 of 3): as the sequence (P26755 whole entry, chain 3 of 3) above

B1: 6xHis-Rtt105 (natural protein, yeast, UniProt P40063 1-208, looked up)
chain: MYSNHNLNSDDCCFDWNEEKAAELQRTGVSFDRSLTPQSLRTSTRRLSEENKQQSGTMHIDTSPSVVSDIISSRRDRSQDFFGPHSSSPIAPSERQRADQRSRLESMRLTRRRDKMTKVRGGLEKMEEMIMQGEHLREMQRLKQEAQKNALPSDMAEYMEWQNNEDLEDDELLAFIEKQETYKNELEHFLNNANKNVYENNSYPNSHT
modifications: labelled with a RED-tris-NTA protein labelling kit
notes: Rtt105, yeast RPA chaperone protein
Kd (4KQ RPA complex): ~0.51 nM | Kd (WT RPA complex): ~1.06 nM | Kd (4KR RPA complex): ~1.17 nM
